In paper PMC5017703, “The Neurite Outgrowth Inhibitory Nogo-A-Δ20 Region Is an Intrinsically Disordered Segment Harbouring Three Stretches with Helical Propensity” (PLoS ONE, 2016):

B1: Nogo-A-Δ20 (residues 544–725 of the rat Nogo-A sequence) (domain or fragment, UniProt Q9JK11-1 544-725, looked up)
chain: TGTKIAYETKVDLVQTSEAIQESLYPTAQLCPSFEEAEATPSPVLPDIVMEAPLNSLLPSAGASVVQPSVSPLEAPPPVSYDSIKLEPENPPPYEEAMNVALKALGTKEGIKEPESFNAAVQETEAPYISIACDLIKETKLSTEPSPDFSNYSEIAKFEKSVPEHAELVEDSSPESEPVDLF
notes: Nogo-A (reticulon 4-A), rat, 1163 residues; Nogo-A-Δ20 region, residues 544-725 (182 residues), numbered as in the rat Nogo-A protein; the T7-tag lies between the N-terminal His6-tag and Nogo-A-Δ20; The N-terminal His6-tag was removed with thrombin; also called 15N-labelled Nogo-A-Δ20; [13C, 15N]-Nogo-A-Δ20; not shown: His6, N-terminal, cleaved; T7-tag, N-terminal, kept; His6, C-terminal, kept

What was measured:
[1] = molecular target: S1PR2 ECL3 peptide ECL3 (Homo sapiens) (UniProt O95136); assay: MST; conditions: cited from earlier work
[2] = molecular target: S1PR2 ECL2 peptide ECL2 (Homo sapiens) (UniProt O95136); assay: MST; conditions: cited from earlier work
[3] = molecular target: the molecule itself; assay: pulsed field gradient NMR diffusion; Nogo-A-Δ20 at 30 μM or 560 μM, without or with TCEP (5 mM or 2 mM), pH 7.4, 6°C; diffusion coefficients compared

| Molecule | Kd [1] [nM] | Kd [2] [nM] | binding result [3] |
| --- | --- | --- | --- |
| Nogo-A-Δ20 Δ20 (from UniProt Q9JK11) | 350 | 280 |  |
| B1 |  |  | binds |
